Assay results from publication PMC4861916, “Characterization of a Citrus R2R3-MYB Transcription Factor that Regulates the Flavonol and Hydroxycinnamic Acid Biosynthesis”.

Target: CsMYBF1 (Citrus, UniProt A0A125SL50 1-337)
Test: EMSA; 0.1% Nonidet P-40, 1 mM benzamidine, 0.5 mM PMSF, 0.5 mM DTT, 50 ug/mL BSA, 100 ng/uL poly(dI-dC), 5 uM Cy3 probe, 1 ug protein in 20 uL, 4 C 2 h; 6% PAGE in 0.5x TBE at 4 C; salt and pH not stated
Settings: protein: recombinant; tags: His (pET28a); label: Cy3

Chain of CsMYBF1 (A0A125SL50 entry or part of it): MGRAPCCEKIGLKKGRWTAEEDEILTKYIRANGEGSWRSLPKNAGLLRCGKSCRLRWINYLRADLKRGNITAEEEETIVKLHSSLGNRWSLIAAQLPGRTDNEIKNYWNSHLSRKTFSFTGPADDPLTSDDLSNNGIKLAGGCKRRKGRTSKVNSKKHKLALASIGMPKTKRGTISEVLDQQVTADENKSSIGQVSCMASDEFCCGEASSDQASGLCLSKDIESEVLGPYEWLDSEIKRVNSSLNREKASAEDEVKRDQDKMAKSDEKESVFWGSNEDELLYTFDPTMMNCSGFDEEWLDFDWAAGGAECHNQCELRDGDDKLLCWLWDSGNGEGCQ

B1: Cs4CL promoter probe WT (dsDNA)
DNA 1: TTAACTGCACCTACCACACCCA
DNA 2: TGGGTGTGGTAGGTGCAGTTAA
binding result: binds

B2: SlFLS promoter probe mutant (dsDNA)
DNA 1: CTTATATCGTCGACTCAACTTA
DNA 2: TAAGTTGAGTCGACGATATAAG
binding result: no binding

B3: SlFLS promoter probe WT (dsDNA)
DNA 1: CTTATATCACCTACTCAACTTA
DNA 2: TAAGTTGAGTAGGTGATATAAG
binding result: binds

B4: CsCHS promoter probe mutant (dsDNA)
DNA 1: TTGATTTCTAGAACCCCCATTG
DNA 2: CAATGGGGGTTCTAGAAATCAA
binding result: no binding

B5: CsCHS promoter probe WT (dsDNA)
DNA 1: TTGATTTAACCTACCCCCATTG
DNA 2: CAATGGGGGTAGGTTAAATCAA
binding result: binds

B6: Cs4CL promoter probe mutant (dsDNA)
DNA 1: TTAACTGCTCTAGACACACCCA
DNA 2: TGGGTGTGTCTAGAGCAGTTAA
binding result: no binding
